Columns and labels:
PlexinA2-ECD-Fc [1] = biological target: T1, PlexinA2-ECD-Fc (human, UniProt O75051 35-1237); experiment: ELISA, coated ECD-Fc, antibody 0.002 ng/mL
T1 construct: extracellular domain; Bought reagent
T1 sequence (looked up): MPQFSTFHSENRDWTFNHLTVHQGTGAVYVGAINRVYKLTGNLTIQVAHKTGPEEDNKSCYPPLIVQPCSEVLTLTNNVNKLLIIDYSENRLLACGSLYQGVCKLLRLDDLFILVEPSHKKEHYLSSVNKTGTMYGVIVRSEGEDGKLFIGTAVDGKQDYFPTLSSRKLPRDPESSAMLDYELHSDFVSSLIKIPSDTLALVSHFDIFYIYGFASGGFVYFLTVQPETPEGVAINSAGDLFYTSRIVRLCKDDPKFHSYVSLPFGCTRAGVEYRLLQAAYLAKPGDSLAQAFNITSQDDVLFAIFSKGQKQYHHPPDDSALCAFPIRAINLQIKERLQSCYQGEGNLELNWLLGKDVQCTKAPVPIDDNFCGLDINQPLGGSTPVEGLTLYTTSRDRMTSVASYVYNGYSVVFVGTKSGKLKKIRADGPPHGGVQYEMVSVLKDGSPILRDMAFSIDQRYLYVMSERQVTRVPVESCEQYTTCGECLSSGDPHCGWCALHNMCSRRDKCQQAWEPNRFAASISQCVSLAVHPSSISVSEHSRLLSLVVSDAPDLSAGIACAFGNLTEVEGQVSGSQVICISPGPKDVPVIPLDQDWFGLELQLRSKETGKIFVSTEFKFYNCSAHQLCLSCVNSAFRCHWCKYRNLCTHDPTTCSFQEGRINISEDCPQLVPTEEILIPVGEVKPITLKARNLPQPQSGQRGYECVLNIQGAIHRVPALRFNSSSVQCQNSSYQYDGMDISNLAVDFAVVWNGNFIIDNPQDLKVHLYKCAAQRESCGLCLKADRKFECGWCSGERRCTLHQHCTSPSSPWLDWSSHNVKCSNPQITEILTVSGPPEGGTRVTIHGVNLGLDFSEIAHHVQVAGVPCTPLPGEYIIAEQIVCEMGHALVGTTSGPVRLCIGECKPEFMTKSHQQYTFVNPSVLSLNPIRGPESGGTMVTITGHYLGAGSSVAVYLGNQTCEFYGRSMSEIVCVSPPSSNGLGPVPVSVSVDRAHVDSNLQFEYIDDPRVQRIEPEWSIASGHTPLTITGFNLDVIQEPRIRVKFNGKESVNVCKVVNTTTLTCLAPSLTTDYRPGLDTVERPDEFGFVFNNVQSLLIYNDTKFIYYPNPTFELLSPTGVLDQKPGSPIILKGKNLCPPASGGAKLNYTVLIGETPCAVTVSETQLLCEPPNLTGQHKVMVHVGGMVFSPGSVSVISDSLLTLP

RON-ECD-Fc [2] = biological target: T2, RON-ECD-Fc (human, UniProt Q04912 25-957); experiment: ELISA, coated ECD-Fc, antibody 0.000 ng/mL
T2 construct: extracellular domain; Bought reagent; not shown: Fc part of the bought fusion
T2 sequence (looked up): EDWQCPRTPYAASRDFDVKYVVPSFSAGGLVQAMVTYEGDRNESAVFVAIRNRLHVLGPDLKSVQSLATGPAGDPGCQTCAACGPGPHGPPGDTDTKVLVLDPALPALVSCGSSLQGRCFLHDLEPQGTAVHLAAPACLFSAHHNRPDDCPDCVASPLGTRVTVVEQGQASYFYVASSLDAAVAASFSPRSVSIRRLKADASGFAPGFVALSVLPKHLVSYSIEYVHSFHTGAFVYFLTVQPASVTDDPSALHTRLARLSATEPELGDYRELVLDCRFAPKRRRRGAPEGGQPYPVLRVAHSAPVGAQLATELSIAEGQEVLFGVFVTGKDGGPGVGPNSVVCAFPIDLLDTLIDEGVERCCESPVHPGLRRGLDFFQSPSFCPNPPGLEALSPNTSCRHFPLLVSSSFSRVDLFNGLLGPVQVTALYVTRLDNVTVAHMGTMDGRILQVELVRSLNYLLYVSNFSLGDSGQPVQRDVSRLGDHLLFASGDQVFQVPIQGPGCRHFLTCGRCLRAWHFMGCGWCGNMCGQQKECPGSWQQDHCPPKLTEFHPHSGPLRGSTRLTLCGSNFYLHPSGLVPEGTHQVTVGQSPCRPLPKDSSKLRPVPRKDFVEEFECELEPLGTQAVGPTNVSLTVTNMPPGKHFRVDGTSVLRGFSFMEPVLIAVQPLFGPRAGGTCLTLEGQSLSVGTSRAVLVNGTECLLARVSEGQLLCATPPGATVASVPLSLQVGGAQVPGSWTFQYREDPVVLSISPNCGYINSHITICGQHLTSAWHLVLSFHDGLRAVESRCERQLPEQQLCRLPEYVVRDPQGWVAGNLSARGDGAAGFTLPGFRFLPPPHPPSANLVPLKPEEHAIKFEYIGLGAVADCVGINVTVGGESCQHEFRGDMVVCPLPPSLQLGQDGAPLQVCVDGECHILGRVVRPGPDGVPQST
Experimental: (§1) Wells of 96-well EIA/RIA high binding plates (Costar, #2592) are coated with 100 μL of 1 μg/mL human c-Met extracellular domain (ECD)-Fc-Flis fusion (SEQ ID NO:72), RON-ECD-Fc (R&D Systems, #1947-MS), or PlexinA2-ECD-Fc (Abnova, Taipei, Taiwan #H00005362-P01) in coating buffer (BioFX Labs, # COAT-1000-01) overnight at 4° C. […] After the plates are washed, 100 μL/well of substrate solution (BioFx, #TMBW-1000-01) are added and the plates are incubated for 10 min. at room temperature. 100 μL/well of stop solution (BioFx, # LSTP-1000-01) are added to stop the reaction. The colorimetric signals are developed and read at 450 nm using a SpectraMax 190 plate reader (Molecular Devices, Sunnyvale, Calif.). c-Met antibody binding to c-Met, RON and PlexinA2 ECDs is proportional to color signal production.

Human c-Met-Flis-Fc ECD [3] = biological target: T3, Human c-Met-Flis-Fc ECD (human); experiment: ELISA, coated ECD-Fc, antibody 0.000 ng/mL
T3 construct: also called human c-Met extracellular domain (ECD)-Fc-Flis fusion; Human cMet-ECD-Fc-Flis
Experimental: as §1

PlexinA2-ECD-Fc [4] = biological target: T1, PlexinA2-ECD-Fc; experiment: ELISA, coated ECD-Fc, antibody 0.000 ng/mL
Experimental: as §1

RON-ECD-Fc [5] = biological target: T2, RON-ECD-Fc; experiment: ELISA, coated ECD-Fc, antibody 0.060 ng/mL
Experimental: as §1

Human c-Met-Flis-Fc ECD [6] = biological target: T3, Human c-Met-Flis-Fc ECD; experiment: ELISA, coated ECD-Fc, antibody 0.060 ng/mL
Experimental: as §1

PlexinA2-ECD-Fc [7] = biological target: T1, PlexinA2-ECD-Fc; experiment: ELISA, coated ECD-Fc, antibody 0.060 ng/mL
Experimental: as §1

T3 sequence (chain, as listed by the source limits assumed): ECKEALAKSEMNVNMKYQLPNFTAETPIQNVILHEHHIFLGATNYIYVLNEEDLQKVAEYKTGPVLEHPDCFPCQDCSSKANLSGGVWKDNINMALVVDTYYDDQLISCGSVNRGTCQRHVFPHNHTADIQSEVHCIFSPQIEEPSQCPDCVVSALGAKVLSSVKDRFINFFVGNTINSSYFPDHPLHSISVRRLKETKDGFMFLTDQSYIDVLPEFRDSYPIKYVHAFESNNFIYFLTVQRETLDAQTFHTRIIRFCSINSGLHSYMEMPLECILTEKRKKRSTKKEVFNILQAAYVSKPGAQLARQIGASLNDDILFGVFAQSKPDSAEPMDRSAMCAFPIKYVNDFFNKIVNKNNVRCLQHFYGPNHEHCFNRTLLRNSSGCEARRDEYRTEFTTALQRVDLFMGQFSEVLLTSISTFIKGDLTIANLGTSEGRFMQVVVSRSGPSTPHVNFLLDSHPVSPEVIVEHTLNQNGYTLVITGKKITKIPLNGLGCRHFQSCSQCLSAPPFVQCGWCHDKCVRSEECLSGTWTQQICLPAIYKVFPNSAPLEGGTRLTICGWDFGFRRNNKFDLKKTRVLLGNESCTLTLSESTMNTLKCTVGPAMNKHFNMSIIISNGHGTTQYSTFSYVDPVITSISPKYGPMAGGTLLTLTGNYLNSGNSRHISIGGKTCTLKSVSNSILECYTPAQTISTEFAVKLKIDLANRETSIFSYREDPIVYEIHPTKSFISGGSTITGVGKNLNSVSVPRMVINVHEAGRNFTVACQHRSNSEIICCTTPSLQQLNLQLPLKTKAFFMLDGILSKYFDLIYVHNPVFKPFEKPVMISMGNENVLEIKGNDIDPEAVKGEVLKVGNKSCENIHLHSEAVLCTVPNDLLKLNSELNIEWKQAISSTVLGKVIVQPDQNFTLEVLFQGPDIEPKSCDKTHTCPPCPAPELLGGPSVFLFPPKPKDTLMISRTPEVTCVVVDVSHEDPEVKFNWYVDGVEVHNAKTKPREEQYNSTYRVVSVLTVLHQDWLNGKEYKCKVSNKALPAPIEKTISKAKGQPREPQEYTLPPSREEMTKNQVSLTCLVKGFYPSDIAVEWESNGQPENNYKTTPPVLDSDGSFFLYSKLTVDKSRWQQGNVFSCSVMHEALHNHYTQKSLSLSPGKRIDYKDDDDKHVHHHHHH

B1: C8-6 (antibody, human IgG2, kappa, V domains shown)
VH: QVQLVQSGAEVKKPGASVKVSCKASGYTFTDYYMHWVRQAPGQGLEWMGRVNPNRGGTTYNQKFEGRVTMTTDTSTSTAYMELRSLRSDDTAVYYCARTNWLDYWGQGTTVTVSS
VL: DIQMTQSPSSLSASVGDRVTITCSVSSSVSSIYLHWYQQKPGKAPKLLIYSTSNLASGVPSRFSGSGSGTDFTLTISSLQPEDFATYYCIQYSGYPLTFGGGTKVEIKR
notes: Called IgG4, kappa; also called Mab C8-6
Average A450 nm (PlexinA2-ECD-Fc [1]): 0.099 A450 nm | Average A450 nm (RON-ECD-Fc [2]): 0.11 A450 nm | Average A450 nm (Human c-Met-Flis-Fc ECD [3]): 0.322 A450 nm | Average A450 nm (PlexinA2-ECD-Fc [4]): 0.109 A450 nm | Average A450 nm (RON-ECD-Fc [5]): 0.087 A450 nm | Average A450 nm (Human c-Met-Flis-Fc ECD [6]): 0.551 A450 nm | Average A450 nm (PlexinA2-ECD-Fc [7]): 0.096 A450 nm

Reference: patent US20100129369A1 (Eli Lilly, published 2010)
